These results are taken from patent US20260234247A1 (published 2026).

In experiment [1] the target is T1, human LILRB1 expressed on CHOK1 cells (human, UniProt Q8NHL6 24-650).
T1 construct: whole, on cells; also called CHOK1-hLILRB1; CHOK1-LILRB1
Briefly: flow cytometry (FACS) binding to CHOK1-hLILRB1 cells.

Experiment [2] addresses T2, human LILRB2 expressed on CHOK1 cells (human, UniProt Q8N423 22-597).
T2 construct: whole, on cells; also called CHOK1-hLILRB2; CHOK1-LILRB2
Kind of experiment: flow cytometry (FACS) binding to CHOK1-hLILRB2 cells. Background: A flow cytometer gives signals particle by particle.

In experiment [3] the target is T1, human LILRB1 expressed on CHOK1 cells. Briefly: cell based RBA on CHOK1-hLILRB1 cells, flow cytometry; competitor HLA-G.
Experiment [4] addresses T2, human LILRB2 expressed on CHOK1 cells. Kind of experiment: cell based RBA on CHOK1-hLILRB2 cells, flow cytometry; competitor HLA-G.
The next experiment addresses T3, human LILRA2-his (human, UniProt Q8N149 24-449, limits assumed).
T3 construct: Analyte of the Biacore run; not shown: His tag
Briefly: SPR (Biacore 8K), antibody captured via Fc, LILRA2-his as analyte, 1:1 model. (In general: In SPR one partner is held on a chip, and binding of the other changes the refractive index at the surface.)

The next experiment has as its target T4, human LILRB1-his (human, UniProt Q8NHL6 24-458, limits assumed).
T4 construct: Analyte of the Biacore run; not shown: His tag
Kind of experiment: SPR (Biacore 8K), antibody captured via Fc, LILRB1-his as analyte, 1:1 model.

In experiment [5] the target is T5, Rhesus LILRB1 (F7H3G7) on CHOK1 cells (rhesus macaque).
T5 construct: whole, on cells; also called CHOK1-Rhesus LILRB1 (F7H3G7)
Kind of experiment: flow cytometry on CHOK1-rhesus LILRB1 (F7H3G7) cells.

T4 sequence (Q8NHL6 24-458 limits assumed): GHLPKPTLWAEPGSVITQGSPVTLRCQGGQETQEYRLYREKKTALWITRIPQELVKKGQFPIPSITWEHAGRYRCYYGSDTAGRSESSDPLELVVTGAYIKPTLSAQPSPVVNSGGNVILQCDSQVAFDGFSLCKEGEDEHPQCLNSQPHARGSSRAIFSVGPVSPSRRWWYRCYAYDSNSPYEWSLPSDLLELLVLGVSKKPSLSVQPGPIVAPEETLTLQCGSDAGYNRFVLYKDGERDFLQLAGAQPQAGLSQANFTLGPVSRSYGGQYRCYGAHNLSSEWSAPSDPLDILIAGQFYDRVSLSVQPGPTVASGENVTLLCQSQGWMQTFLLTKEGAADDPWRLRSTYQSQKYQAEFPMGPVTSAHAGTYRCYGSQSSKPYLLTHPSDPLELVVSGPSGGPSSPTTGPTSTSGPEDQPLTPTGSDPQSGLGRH
T2 sequence (Q8N423 22-597): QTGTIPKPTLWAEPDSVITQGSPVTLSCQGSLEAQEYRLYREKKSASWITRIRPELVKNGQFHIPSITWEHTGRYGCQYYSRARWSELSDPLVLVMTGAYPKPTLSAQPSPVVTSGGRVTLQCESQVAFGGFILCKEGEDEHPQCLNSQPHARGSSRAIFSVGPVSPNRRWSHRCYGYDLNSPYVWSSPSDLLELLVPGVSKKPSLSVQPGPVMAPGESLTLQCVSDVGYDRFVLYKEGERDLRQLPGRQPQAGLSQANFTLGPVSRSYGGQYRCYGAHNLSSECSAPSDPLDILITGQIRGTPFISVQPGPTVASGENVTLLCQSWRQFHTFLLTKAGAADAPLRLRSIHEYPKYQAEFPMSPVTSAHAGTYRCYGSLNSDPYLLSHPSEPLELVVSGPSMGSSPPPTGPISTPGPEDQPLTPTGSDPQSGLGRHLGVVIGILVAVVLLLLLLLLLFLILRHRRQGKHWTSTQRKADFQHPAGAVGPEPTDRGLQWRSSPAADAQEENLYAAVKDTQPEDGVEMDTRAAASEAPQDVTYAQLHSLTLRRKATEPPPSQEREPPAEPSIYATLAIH
T3 sequence (Q8N149 24-449 limits assumed): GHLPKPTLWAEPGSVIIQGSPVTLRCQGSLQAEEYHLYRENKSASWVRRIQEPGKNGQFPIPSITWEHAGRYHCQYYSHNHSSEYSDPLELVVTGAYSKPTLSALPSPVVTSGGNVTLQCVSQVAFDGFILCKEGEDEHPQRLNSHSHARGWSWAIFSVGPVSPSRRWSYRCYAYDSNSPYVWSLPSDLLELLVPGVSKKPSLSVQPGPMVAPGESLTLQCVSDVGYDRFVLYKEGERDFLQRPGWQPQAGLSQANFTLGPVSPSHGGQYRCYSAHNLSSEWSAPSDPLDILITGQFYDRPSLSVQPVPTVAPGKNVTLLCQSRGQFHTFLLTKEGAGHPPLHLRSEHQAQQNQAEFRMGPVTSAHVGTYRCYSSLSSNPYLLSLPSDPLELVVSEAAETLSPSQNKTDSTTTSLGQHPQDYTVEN
Experimental for human LILRA2-his: (§1) For affinity ranking, antibodies were captured on the sensor chip through Fc capture method. LILRB1-his, LILRB2-his or LILRA2-his was used as the analyte. The surface was regenerated before the injection of another antibody. The process was repeated until all antibodies were analyzed. The off-rates were obtained from fitting the experimental data locally to 1:1 interaction model using the Biacore 8K evaluation software. The data of dissociation (kd) and association (ka) rate constants were obtained using Biacore 8K evaluation software. The equilibrium dissociation constants (KD) were calculated from the ratio of kd over ka. The antibodies were ranked by their dissociation rate constant kd.
Experimental for human LILRB1-his: as §1

B1: 15G8 (antibody, human IgG4 S228P, kappa, V domains shown)
VH: DVQLQGSGPGLVKPSETLSLTCSVTGYSITSGYYWNWIRQFPGKKLEWMGYISYDGSNNYNPSLKNRITISRDTSKNQFSLKLNSVTAADTATYYCAHGYSYYYAMDAWGQGTSVTVSS
VL: DIQMTQSPSSLSASVGDRVTITCRTSQDISNYLNWYQQKPGKAVKLLISYTSRLHSGVPSRFSGSGSGTDYTLTISSLQPEDFATYYCQQGNTLPTFGQGTKLEIKR
The term EC50 denotes the concentration at which the effect is half-maximal. Read a high EC50 as lower potency in that assay. With B1, the EC50 was found to be 1.17 nM in experiment [1] and 2.05 µg/mL in experiment [3]. Further, the binding result in experiment [2] is reported as “no binding”.

B2: LK-RBi-06 (bispecific antibody, human IgG4 S228P, kappa)
heavy: not shown
light: DIQMTQSPSTLSASVGDRVTITCHASQSVDFWLNWYQQKPGKAPKLLISKASNLHTGVPSRFSGSGSGTEFTLTISSLQPDDFATYYCQQGQSYPLTFGQGTKLEIKRTVAAPSVFIFPPSDEQLKSGTASVVCLLNNFYPREAKVQWKVDNALQSGNSQESVTEQDSKDSTYSLSSTLTLSKADYEKHKVYACEVTHQGLSSPVTKSFNRGEC
Take B2: the EC50 in experiment [1] amounted to 1.47 nM; in experiment [2] it was 0.73 nM; in experiment [3], 1.31 µg/mL; in experiment [4], 0.57 µg/mL.

B3: LK-RBi-07 (bispecific antibody, human IgG4 S228P, kappa)
heavy: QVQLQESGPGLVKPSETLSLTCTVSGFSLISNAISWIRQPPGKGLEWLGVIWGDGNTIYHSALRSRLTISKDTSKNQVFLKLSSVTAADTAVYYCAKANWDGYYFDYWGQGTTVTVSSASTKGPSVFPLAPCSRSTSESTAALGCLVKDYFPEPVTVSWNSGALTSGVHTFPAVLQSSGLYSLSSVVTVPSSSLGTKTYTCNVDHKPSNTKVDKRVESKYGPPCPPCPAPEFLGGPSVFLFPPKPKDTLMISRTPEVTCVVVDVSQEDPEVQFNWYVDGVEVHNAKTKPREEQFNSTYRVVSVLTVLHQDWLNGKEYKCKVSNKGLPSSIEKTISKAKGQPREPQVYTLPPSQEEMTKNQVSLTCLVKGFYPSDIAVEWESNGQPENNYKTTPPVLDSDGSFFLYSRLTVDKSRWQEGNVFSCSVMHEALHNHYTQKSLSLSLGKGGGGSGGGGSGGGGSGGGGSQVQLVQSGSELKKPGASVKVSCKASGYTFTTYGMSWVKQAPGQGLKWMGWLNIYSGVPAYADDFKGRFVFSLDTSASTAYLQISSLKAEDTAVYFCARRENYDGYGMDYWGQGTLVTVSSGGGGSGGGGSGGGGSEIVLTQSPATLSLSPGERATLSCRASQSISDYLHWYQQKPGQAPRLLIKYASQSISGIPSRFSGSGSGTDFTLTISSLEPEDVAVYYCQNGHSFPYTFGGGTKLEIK
light: DIQMTQSPSTLSASVGDRVTITCHASQSVDFWLNWYQQKPGKAPKLLISKASNLHTGVPSRFSGSGSGTEFTLTISSLQPDDFATYYCQQGQSYPLTFGQGTKLEIKRTVAAPSVFIFPPSDEQLKSGTASVVCLLNNFYPREAKVQWKVDNALQSGNSQESVTEQDSKDSTYSLSSTLTLSKADYEKHKVYACEVTHQGLSSPVTKSFNRGEC
Regarding B3, the EC50 in experiment [1] was determined as 2.51 nM; in experiment [2], 1.58 nM; in experiment [3], 1.22 µg/mL; in experiment [4] it was 0.97 µg/mL.

B4: J19.h1 (antibody, human IgG4 S228P, kappa, V domains shown)
VH: QITLKESGPTLVKPTQTLTLTCTFSGFSLNTYAMGVSWIRQPPGKALEWLASIWWNGNKYNNPSLKSRLTVTKDTSKNQVVLTMTNMDPVDTATYYCAHSRIIRFTDYVMDAWGQGTLVTVSS
VL: DIQMTQSPSSLSTSVGDRVTITCRASEDIYNDLAWYQQKPGKAPKLLIYNANSLHTGVASRFSGSGSGTDFTFTISSLQPEDVATYFCQQYYDYPLTFGQGTKLEIKR
Regarding B4, the binding result in experiment [1] is recorded as “no binding”. In addition, the EC50 in experiment [2] stood at 0.27 nM; in experiment [4], 0.46 µg/mL.

B5: LK-RBi-01 (bispecific antibody, human IgG4 S228P, kappa)
heavy: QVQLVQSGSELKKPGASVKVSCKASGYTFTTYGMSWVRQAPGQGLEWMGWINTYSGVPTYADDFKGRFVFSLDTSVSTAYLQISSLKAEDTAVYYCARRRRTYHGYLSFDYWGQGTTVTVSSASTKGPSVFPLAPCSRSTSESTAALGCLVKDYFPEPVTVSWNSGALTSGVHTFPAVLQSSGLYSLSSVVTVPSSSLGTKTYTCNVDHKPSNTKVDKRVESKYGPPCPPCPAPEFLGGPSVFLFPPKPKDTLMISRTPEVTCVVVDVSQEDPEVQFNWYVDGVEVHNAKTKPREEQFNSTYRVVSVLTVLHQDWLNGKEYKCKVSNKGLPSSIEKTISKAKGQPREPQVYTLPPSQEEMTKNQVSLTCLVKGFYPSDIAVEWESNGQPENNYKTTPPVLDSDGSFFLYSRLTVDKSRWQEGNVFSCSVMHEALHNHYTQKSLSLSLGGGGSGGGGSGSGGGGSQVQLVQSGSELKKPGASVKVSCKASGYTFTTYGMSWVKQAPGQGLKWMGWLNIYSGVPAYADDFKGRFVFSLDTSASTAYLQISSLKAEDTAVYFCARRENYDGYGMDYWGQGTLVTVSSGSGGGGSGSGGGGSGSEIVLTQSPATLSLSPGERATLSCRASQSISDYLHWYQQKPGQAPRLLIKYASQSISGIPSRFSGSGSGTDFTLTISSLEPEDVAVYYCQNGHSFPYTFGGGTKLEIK
light: DIQMTQSPSSLSASVGDRVTITCETSENIYGALNWYQQKPGKAPKLLIYGATNLAEGVPSRFSGSGSGTDFTFTISSLQPEDIATYYCQNVLNTPWTFGGGTKLEIKRTVAAPSVFIFPPSDEQLKSGTASVVCLLNNFYPREAKVQWKVDNALQSGNSQESVTEQDSKDSTYSLSSTLTLSKADYEKHKVYACEVTHQGLSSPVTKSFNRGEC
With B5, the EC50 was 7.15 nM in experiment [1], 0.8 nM in experiment [2], 1.4 µg/mL in experiment [3] and 0.38 µg/mL in experiment [4].

B6: LK-RBi-02 (bispecific antibody, human IgG4 S228P, kappa)
heavy: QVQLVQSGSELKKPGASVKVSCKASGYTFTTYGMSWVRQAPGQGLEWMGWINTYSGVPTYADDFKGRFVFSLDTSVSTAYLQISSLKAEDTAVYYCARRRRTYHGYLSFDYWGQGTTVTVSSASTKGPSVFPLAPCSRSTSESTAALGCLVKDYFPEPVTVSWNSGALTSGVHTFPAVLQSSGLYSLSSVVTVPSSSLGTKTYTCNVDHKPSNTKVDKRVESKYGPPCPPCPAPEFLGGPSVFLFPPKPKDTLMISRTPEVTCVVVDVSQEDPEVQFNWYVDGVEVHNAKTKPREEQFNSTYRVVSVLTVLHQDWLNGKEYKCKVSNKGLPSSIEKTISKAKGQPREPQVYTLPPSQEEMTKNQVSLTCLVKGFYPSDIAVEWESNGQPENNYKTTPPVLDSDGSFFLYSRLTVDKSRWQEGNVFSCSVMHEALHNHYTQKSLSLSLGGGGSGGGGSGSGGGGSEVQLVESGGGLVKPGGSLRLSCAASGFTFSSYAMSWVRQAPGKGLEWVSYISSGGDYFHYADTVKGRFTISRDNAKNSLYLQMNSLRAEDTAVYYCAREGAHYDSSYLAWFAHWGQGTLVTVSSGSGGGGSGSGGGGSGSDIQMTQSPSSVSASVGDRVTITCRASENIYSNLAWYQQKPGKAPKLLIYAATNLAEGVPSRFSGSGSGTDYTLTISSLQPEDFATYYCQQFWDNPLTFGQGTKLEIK
light: DIQMTQSPSSLSASVGDRVTITCETSENIYGALNWYQQKPGKAPKLLIYGATNLAEGVPSRFSGSGSGTDFTFTISSLQPEDIATYYCQNVLNTPWTFGGGTKLEIKRTVAAPSVFIFPPSDEQLKSGTASVVCLLNNFYPREAKVQWKVDNALQSGNSQESVTEQDSKDSTYSLSSTLTLSKADYEKHKVYACEVTHQGLSSPVTKSFNRGEC
As to B6, the EC50 was 1.27 nM in experiment [1], 1.25 nM in experiment [2], 2.12 µg/mL in experiment [3] and 0.19 µg/mL in experiment [4].

B7: LK-RBi-09 (bispecific antibody, human IgG4 S228P, kappa)
heavy: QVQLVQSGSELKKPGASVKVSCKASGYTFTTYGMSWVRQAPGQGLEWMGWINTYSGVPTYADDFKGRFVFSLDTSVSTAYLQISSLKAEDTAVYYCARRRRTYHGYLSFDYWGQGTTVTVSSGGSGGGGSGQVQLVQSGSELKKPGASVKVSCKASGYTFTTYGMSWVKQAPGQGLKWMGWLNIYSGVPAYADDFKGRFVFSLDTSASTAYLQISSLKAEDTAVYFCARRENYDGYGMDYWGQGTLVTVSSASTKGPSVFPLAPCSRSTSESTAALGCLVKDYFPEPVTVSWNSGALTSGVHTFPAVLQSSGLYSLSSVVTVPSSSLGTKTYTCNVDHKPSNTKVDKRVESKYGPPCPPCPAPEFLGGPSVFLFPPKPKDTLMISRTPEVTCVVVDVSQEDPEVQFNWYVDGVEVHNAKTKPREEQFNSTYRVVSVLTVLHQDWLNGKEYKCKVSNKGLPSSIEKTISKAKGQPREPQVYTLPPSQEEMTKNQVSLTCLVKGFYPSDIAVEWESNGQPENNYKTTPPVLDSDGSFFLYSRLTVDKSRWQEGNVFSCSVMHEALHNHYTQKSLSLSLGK
light: DIQMTQSPSSLSASVGDRVTITCETSENIYGALNWYQQKPGKAPKLLIYGATNLAEGVPSRFSGSGSGTDFTFTISSLQPEDIATYYCQNVLNTPWTFGGGTKLEIKGGSGGGGSGEIVLTQSPATLSLSPGERATLSCRASQSISDYLHWYQQKPGQAPRLLIKYASQSISGIPSRFSGSGSGTDFTLTISSLEPEDVAVYYCQNGHSFPYTFGGGTKLEIKRTVAAPSVFIFPPSDEQLKSGTASVVCLLNNFYPREAKVQWKVDNALQSGNSQESVTEQDSKDSTYSLSSTLTLSKADYEKHKVYACEVTHQGLSSPVTKSFNRGEC
B7: the EC50 was found to be 1.17 nM in experiment [1], 1.29 nM in experiment [2], 1.03 µg/mL in experiment [3] and 0.43 µg/mL in experiment [4].

B8: LK-RBi-11 (bispecific antibody, human IgG4 S228P, kappa)
heavy: not shown
light: DIQMTQSPSTLSASVGDRVTITCHASQSVDFWLNWYQQKPGKAPKLLISKASNLHTGVPSRFSGSGSGTEFTLTISSLQPDDFATYYCQQGQSYPLTFGQGTKLEIKGGSGGGGSGDIQMTQSPSSVSASVGDRVTITCRASENIYSNLAWYQQKPGKAPKLLIYAATNLAEGVPSRFSGSGSGTDYTLTISSLQPEDFATYYCQQFWDNPLTFGQGTKLEIKRTVAAPSVFIFPPSDEQLKSGTASVVCLLNNFYPREAKVQWKVDNALQSGNSQESVTEQDSKDSTYSLSSTLTLSKADYEKHKVYACEVTHQGLSSPVTKSFNRGEC
Turning to B8, the EC50 in experiment [1] worked out at 2.31 nM; in experiment [2] it was 2.22 nM; in experiment [3], 4.37 µg/mL; in experiment [4], 2.49 µg/mL.

B9: LK-RB1-9.h3 (antibody, human IgG4, kappa, V domains shown)
VH: QVQLVQSGSELKKPGASVKVSCTASGYTFTTYGMSWVKQAPGQGLKWMGWINTYSGVPTYADDFKGRFVFSLDTSVSTAYLQISSLKAEDTAVYFCARRRRTYHGYLSFDYWGQGTTVTVSS
VL: DIQMTQSPSSLSASVGDRVTITCETSENIYGALNWYQQKPGKAPKLLIYGATNLAEGVPSRFSGSGSGTDYTFTISSLQPEDIATYYCQNVLNTPWTFGGGTKLEIKR
notes: Humanized form of LK-RB1-9
As a reminder, the Kd is the constant that tells how readily two partners part at equilibrium. A high value points to weaker binding. One may read the koff as the rate constant with which the complex falls apart. Higher therefore signals a short-lived complex. The term kon denotes the rate constant with which the complex forms. Read a low kon as slow association. For the molecule B9, in the experiment with human LILRA2-his, the Kd was found to be 6.77 nM, the koff was 0.00126 s⁻¹ and the kon turned out to be 186000 M⁻¹ s⁻¹. In the experiment with human LILRB1-his, this molecule came in with a dissociation constant (Kd) of 0.497 nM, a koff of 0.000115 s⁻¹ and a kon of 232000 M⁻¹ s⁻¹.

B10: LK-RB1-11 (antibody, human IgG4 S228P, kappa, V domains shown)
VH: QVTLKESGPGILQPSQTLSLTCSFSGFSLKTSGMSVGWIRQPSGKGLEWLAHIWWNDDKYYNPVLKGRLTISKDTSNNLVFLKIASVVSTDTATYYCVRYGNSHGYWYFDVWGTGTTVTVSS
VL: NIVLTQSPASLAVSLGQRATISCRASESVDSYGNNFIHWYQQKPGQPPKVLIYYASNLEAGVPARFSGSGSRTDFTLTIDPVEAEDAATYYCQQNNEDPYTFGGGTKLEIER
notes: Anti-LILRB1 antibody
Consider B10, for which the EC50 in experiment [5] is 0.78 nM.

B11: LK-RBi-10 (bispecific antibody, human IgG4 S228P, kappa)
heavy: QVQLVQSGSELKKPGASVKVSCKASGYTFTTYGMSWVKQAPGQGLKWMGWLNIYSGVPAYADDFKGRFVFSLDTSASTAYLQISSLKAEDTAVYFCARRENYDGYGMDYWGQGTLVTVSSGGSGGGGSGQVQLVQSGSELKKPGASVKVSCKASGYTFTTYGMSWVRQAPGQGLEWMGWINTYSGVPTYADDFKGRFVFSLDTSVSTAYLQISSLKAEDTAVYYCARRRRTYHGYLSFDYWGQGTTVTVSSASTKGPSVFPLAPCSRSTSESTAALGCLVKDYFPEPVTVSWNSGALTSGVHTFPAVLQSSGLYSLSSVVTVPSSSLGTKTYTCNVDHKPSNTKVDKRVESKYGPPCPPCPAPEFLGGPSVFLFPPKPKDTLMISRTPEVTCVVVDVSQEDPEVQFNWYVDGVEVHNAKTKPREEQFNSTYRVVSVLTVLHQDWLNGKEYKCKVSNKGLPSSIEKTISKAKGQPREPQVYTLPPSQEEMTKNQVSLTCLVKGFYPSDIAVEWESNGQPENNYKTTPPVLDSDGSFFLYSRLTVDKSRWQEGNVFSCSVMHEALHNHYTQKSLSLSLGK
light: EIVLTQSPATLSLSPGERATLSCRASQSISDYLHWYQQKPGQAPRLLIKYASQSISGIPSRFSGSGSGTDFTLTISSLEPEDVAVYYCQNGHSFPYTFGGGTKLEIKGGSGGGGSGDIQMTQSPSSLSASVGDRVTITCETSENIYGALNWYQQKPGKAPKLLIYGATNLAEGVPSRFSGSGSGTDFTFTISSLQPEDIATYYCQNVLNTPWTFGGGTKLEIKRTVAAPSVFIFPPSDEQLKSGTASVVCLLNNFYPREAKVQWKVDNALQSGNSQESVTEQDSKDSTYSLSSTLTLSKADYEKHKVYACEVTHQGLSSPVTKSFNRGEC
As to B11, the half-maximal effective concentration (EC50) in experiment [1] came to 2.21 nM; in experiment [2], 1.06 nM; in experiment [3], 0.91 µg/mL; in experiment [4], 0.5 µg/mL.

B12: hz73D1.v1 (antibody, human IgG4 S228P, kappa, V domains shown)
VH: QVQLVQSGAEVKKPGASVKVSCKASGYTFTDYYINWVRQAPGQGLEWMGNVNPNDGGTTYNQKFKGRVTMTTDTSTSTAYMELRSLRSDDTAVYYCARREIYFYGTIYYYAMDYWGQGTLVTVSS
VL: DIQLTQSPSFLSASVGDRVTITCRASESVDYYGNSFMYWYQQKPGKAPKLLIYFASNLESGVPSRFSGSGSGTEFTLTISSLQPEDFATYYCQQNNEDPWTFGGGTKVEIKR
As to B12, the EC50 is 5.37 nM in experiment [1], 1.4 nM in experiment [2], 7.26 µg/mL in experiment [3] and 1.46 µg/mL in experiment [4].

B13: LK-RB1-50 (antibody, human IgG4 S228P, kappa, V domains shown)
VH: QVQLKQSGPGLVQPSQSLSITCTVSGFSLTSYGVHWVRQSPGKGLEWLGVIWRGGNTDYNAPFVSRLSITKDNSQSQVFFKMNSLEADDTAIYYCAKNSLDVYSSWYFDVWGTGTTVTVSS
VL: QIVLSQSPAILSAFPGEKVTMTCRASSSVSFMHWYQQKPGSSPKPWIYATSNLASGVPARFSGSGSGTSYSLTISRVEAEDAATYYCQQWSSNPLTFGAGTKLELKR
notes: Anti-LILRB1 antibody
B13 came in with an EC50 in experiment [5] of 19900 nM.

B14: LK-RB1-51 (antibody, human IgG4 S228P, kappa, V domains shown)
VH: QVQIQQSGAELVKPGASVKLSCKASGYTFTEFPIHWIKQRSGQGLEWIGWFYPGSDNMNYNEKFKDKATLTADKSSSTVYMELSRLTSEDSAVYFCARHENAYFYAMDYWGQGTSVTVSS
VL: ENVLTQSPAIMSASLGEKVTMSCRASSSVNYMYWYQQKSDASPKIWIYYTSNLAPGVPARFSGSGSGNSYSLTISSMEGEDAATYYCQQFTSSPFTFGTGTKLEIKR
notes: Anti-LILRB1 antibody
On to B14, for which the EC50 in experiment [5] is 26600 nM.

B15: LK-RB1-54 (antibody, human IgG4 S228P, kappa, V domains shown)
VH: DVQLQESGPGLVKPSQSLSLTCSVTGYSITSGFYWNWIRQFPGNKLEWMGHISYDGTNNYNPSLKNRISITRDTSKNLFFLKLNSVTTEDTATFHCARGGYGGSYGFDYWGQGTTLTVSS
VL: ENVLTQSPAIMSASLGEKVTMSCRASSSVNYMYWYQQKSDASPKLWIYYTSNLAPGVPVRFSGSGSGNSYSLTISSMEGEDAATYYCQQFTSSPWTFGGGTKLEIKR
notes: Anti-LILRB1 antibody
In experiment [5], B15 displayed an EC50 of 24200 nM.
